Where a chain is given by its changes, count along the chain named. Names may count otherwise. One block for each binder: values may come before it.
Tests used:
Assay in all cases: cell-based or functional assay
ADAMTS4 = molecular target: T1, ADAMTS4 (human, UniProt O75173 213-685, limits assumed)
T1 sequence (looked up): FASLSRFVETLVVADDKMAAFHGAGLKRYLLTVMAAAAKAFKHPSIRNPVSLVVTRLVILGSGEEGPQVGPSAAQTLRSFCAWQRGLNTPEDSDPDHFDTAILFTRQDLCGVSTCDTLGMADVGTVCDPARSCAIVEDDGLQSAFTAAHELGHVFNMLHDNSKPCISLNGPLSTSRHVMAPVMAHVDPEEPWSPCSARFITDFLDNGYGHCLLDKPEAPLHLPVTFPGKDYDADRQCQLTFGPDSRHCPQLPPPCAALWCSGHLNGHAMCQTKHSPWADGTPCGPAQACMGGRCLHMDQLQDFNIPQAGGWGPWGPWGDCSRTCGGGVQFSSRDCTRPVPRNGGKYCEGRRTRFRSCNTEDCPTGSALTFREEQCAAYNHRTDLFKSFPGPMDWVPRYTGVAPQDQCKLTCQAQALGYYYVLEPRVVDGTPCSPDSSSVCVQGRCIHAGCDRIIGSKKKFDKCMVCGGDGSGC

ADAMTS5 = molecular target: T2, ADAMTS5 (human, UniProt Q9UNA0 262-622, limits assumed)
T2 sequence (looked up): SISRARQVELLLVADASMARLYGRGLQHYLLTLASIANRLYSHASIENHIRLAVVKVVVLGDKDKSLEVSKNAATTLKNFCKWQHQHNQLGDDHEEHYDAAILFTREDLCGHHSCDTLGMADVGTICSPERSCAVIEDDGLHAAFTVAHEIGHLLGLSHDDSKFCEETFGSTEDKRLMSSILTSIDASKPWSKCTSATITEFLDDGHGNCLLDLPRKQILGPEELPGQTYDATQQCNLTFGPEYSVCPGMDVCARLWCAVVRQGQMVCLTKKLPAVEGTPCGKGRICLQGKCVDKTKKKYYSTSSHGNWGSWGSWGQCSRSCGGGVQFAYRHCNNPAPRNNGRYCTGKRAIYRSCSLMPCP

MMP13 = MMP13 (human, UniProt P45452 104-471, limits assumed)

Protease Inhibition (% of WT) (ADAMTS4): 101 % of WT
Protease Inhibition (% of WT) (ADAMTS5): 485 % of WT
Protease Inhibition (% of WT) (MMP13): 1 % of WT
B1: Variant A2M, bait region SEQ ID NO 89 (other)
chain: SVSGKPQYMVLVPSLLHTETTEKGCVLLSYLNETVTVSASLESVRGNRSLFTDLEAENDVLHCVAFAVPKSSSNEEVMFLTVQVKGPTQEFKKRTTVMVKNEDSLVFVQTDKSIYKPGQTVKFRVVSMDENFHPLNELIPLVYIQDPKGNRIAQWQSFQLEGGLKQFSFPLSSEPFQGSYKVVVQKKSGGRTEHPFTVEEFVLPKFEVQVTVPKIITILEEEMNVSVCGLYTYGKPVPGHVTVSICRKYSDASDCHGEDSQAFCEKFSGQLNSHGCFYQQVKTKVFQLKRKEYEMKLHTEAQIQEEGTVVELTGRQSSEITRTITKLSFVKVDSHFRQGIPFFGQVRLVDGKGVPIPNKVIFIRGNEANYYSNATTDEHGLVQFSINTTNVMGTSLTVRVNYKDRSPCYGYQWVSEEHEEAHHTAYLVFSPSKSFVHLEPMSHELPCGHTQTVQAHYILNGGTLLGLKKLSFYYLIMAKGGIVRTGTHGLLVKQEDMKGHFSISIPVKSDIAPVARLLIYAVLPTGDVIGDSAKYDVENCLANKVDLSFSPSQSLPASHAHLRVTAAPQSVCALRAVDQSVLLMKPDAELSASSVYNLLPEKDLTGFPGPLNDQDDEDCINRHNVYINGITYTPVSSTNEKDMYSFLEDMGLKAFTNSKIRKPKMCPQLEQYEMHGPEGLRVGKEEEGLGSFYESDVMGRGHARLVHVEEPHTKLLRKYFPETWIWDLVVVNSAGVAEVGVTVPDTITEWKAGAFCLSEDAGLGISSTASLRAFQPFFVELTMPYSVIRGEAFTLKATVLNYLPKCIRVSVQLEASPAFLAVPVEKEQAPHCICANGRQTVSWAVTPKSLGNVNFTVSAEALESQELCGTEVPSVPEHGRKDTVIKPLLVEPEGLEKETTFNSLLCPSGGEVSEELSLKLPPNVVEESARASVSVLGDILGSAMQNTQNLLQMPYGCGEQNMVLFAPNIYVLDYLNETQQLTPEIKSKAIGYLNTGYQRQLNYKHYDGSYSTFGERYGRNQGNTWLTAFVLKTFAQARAYIFIDEAHITQALIWLSQRQKDNGCFRSSGSLLNNAIKGGVEDEVTLSAYITIALLEIPLTVTHPVVRNALFCLESAWKTAQEGDHGSHVYTKALLAYAFALAGNQDKRKEVLKSLNEEAVKKDNSVHWERPQKPKAPVGHFYEPQAPSAEVEMTSYVLLAYLTAQPAPTSEDLTSATNIVKWITKQQNAQGGFSSTQDTVVALHALSKYGAATFTRTGKAAQVTIQSSGTFSSKFQVDNNNRLLLQQVSLPELPGEYSMKVTGEGCVYLQTSLKYNILPEKEEFPFALGVQTLPQTCDEPKAHTSFQISLSVSYTGSRSASNMAIVDVKMVSGFIPLKPTVKMLERSNHVSRTEVSSNHVLIYLDKVSNQTLSLFFTVLQDVPVRDLKPAIVKVYDYYETDEFAIAEYNAPCSKDLGNADYKDDDDKGASHHHHHH

Protease Inhibition (% of WT) (ADAMTS4): 121 % of WT
Protease Inhibition (% of WT) (ADAMTS5): 395 % of WT
Protease Inhibition (% of WT) (MMP13): 173 % of WT
B2: Variant A2M, bait region SEQ ID NO 94 (other)
chain: B1 chain with K684T, E686G, G688A, L689R

Protease Inhibition (% of WT) (ADAMTS4): 153 % of WT
Protease Inhibition (% of WT) (ADAMTS5): 272 % of WT
Protease Inhibition (% of WT) (MMP13): 79 % of WT
B5: Variant A2M, bait region SEQ ID NO 95 (other)
chain: B1 chain with K684T, E685S, E687D, G688L, L689V, G690V, S691Q

Protease Inhibition (% of WT) (ADAMTS4): 124 % of WT
Protease Inhibition (% of WT) (ADAMTS5): 82 % of WT
Protease Inhibition (% of WT) (MMP13): 148 % of WT
B7: Variant A2M, bait region SEQ ID NO 98 (other)
chain: SVSGKPQYMVLVPSLLHTETTEKGCVLLSYLNETVTVSASLESVRGNRSLFTDLEAENDVLHCVAFAVPKSSSNEEVMFLTVQVKGPTQEFKKRTTVMVKNEDSLVFVQTDKSIYKPGQTVKFRVVSMDENFHPLNELIPLVYIQDPKGNRIAQWQSFQLEGGLKQFSFPLSSEPFQGSYKVVVQKKSGGRTEHPFTVEEFVLPKFEVQVTVPKIITILEEEMNVSVCGLYTYGKPVPGHVTVSICRKYSDASDCHGEDSQAFCEKFSGQLNSHGCFYQQVKTKVFQLKRKEYEMKLHTEAQIQEEGTVVELTGRQSSEITRTITKLSFVKVDSHFRQGIPFFGQVRLVDGKGVPIPNKVIFIRGNEANYYSNATTDEHGLVQFSINTTNVMGTSLTVRVNYKDRSPCYGYQWVSEEHEEAHHTAYLVFSPSKSFVHLEPMSHELPCGHTQTVQAHYILNGGTLLGLKKLSFYYLIMAKGGIVRTGTHGLLVKQEDMKGHFSISIPVKSDIAPVARLLIYAVLPTGDVIGDSAKYDVENCLANKVDLSFSPSQSLPASHAHLRVTAAPQSVCALRAVDQSVLLMKPDAELSASSVYNLLPEKDLTGFPGPLNDQDDEDCINRHNVYINGITYTPVSSTNEKDMYSFLEDMGLKAFTNSKIRKPKMCPQLEQYEMHGPEGLRVGGARGLEGFYESDVMGRGHARLVHVEEPHTKLRKYFPETWIWDLVVVNSAGVAEVGVTVPDTITEWKAGAFCLSEDAGLGISSTASLRAFQPFFVELTMPYSVIRGEAFTLKATVLNYLPKCIRVSVQLEASPAFLAVPVEKEQAPHCICANGRQTVSWAVTPKSLGNVNFTVSAEALESQELCGTEVPSVPEHGRKDTVIKPLLVEPEGLEKETTFNSLLCPSGGEVSEELSLKLPPNVVEESARASVSVLGDILGSAMQNTQNLLQMPYGCGEQNMVLFAPNIYVLDYLNETQQLTPEIKSKAIGYLNTGYQRQLNYKHYDGSYSTFGERYGRNQGNTWLTAFVLKTFAQARAYIFIDEAHITQALIWLSQRQKDNGCFRSSGSLLNNAIKGGVEDEVTLSAYITIALLEIPLTVTHPVVRNALFCLESAWKTAQEGDHGSHVYTKALLAYAFALAGNQDKRKEVLKSLNEEAVKKDNSVHWERPQKPKAPVGHFYEPQAPSAEVEMTSYVLLAYLTAQPAPTSEDLTSATNIVKWITKQQNAQGGFSSTQDTVVALHALSKYGAATFTRTGKAAQVTIQSSGTFSSKFQVDNNNRLLLQQVSLPELPGEYSMKVTGEGCVYLQTSLKYNILPEKEEFPFALGVQTLPQTCDEPKAHTSFQISLSVSYTGSRSASNMAIVDVKMVSGFIPLKPTVKMLERSNHVSRTEVSSNHVLIYLDKVSNQTLSLFFTVLQDVPVRDLKPAIVKVYDYYETDEFAIAEYNAPCSKDLGNADYKDDDDKGASHHHHHH

Further lines, the binder ahead of its results:

B3: Variant A2M, bait region SEQ ID NO 99 (other)
chain: B1 chain with K684G, E685P, E686P, E687G, G688L, L689A, G690P, S691G
Protease Inhibition (% of WT) (ADAMTS4): 63 % of WT
Protease Inhibition (% of WT) (ADAMTS5): 87 % of WT
Protease Inhibition (% of WT) (MMP13): 64 % of WT

B4: Variant A2M, bait region SEQ ID NO 93 (other)
chain: B1 chain with K684V, E685S, E686Q, G688L, L689G, G690Q, S691R
Protease Inhibition (% of WT) (ADAMTS4): 27 % of WT
Protease Inhibition (% of WT) (ADAMTS5): 66 % of WT
Protease Inhibition (% of WT) (MMP13): 119 % of WT

B6: Variant A2M, bait region SEQ ID NO 97 (other)
chain: B1 chain with K684G, E687G, G688V, L689E, G690E, S691G
Protease Inhibition (% of WT) (ADAMTS4): 131 % of WT
Protease Inhibition (% of WT) (ADAMTS5): 128 % of WT
Protease Inhibition (% of WT) (MMP13): 116 % of WT

From patent publication US20230250154A1 (CYTONICS, published 2023)
